Source: US20210238276A1 (INTEGRAL MOLECULAR, published 2021)
Positions count from the first letter of the chain named.

Legend:
Experiment in all cases: flow cytometry, alanine-scan library in HEK-293T, with cytochalasin B
hsGLUT4 L260A = molecular target: T1, hsGLUT4 L260A (human, UniProt P14672 1-509)
T1 sequence: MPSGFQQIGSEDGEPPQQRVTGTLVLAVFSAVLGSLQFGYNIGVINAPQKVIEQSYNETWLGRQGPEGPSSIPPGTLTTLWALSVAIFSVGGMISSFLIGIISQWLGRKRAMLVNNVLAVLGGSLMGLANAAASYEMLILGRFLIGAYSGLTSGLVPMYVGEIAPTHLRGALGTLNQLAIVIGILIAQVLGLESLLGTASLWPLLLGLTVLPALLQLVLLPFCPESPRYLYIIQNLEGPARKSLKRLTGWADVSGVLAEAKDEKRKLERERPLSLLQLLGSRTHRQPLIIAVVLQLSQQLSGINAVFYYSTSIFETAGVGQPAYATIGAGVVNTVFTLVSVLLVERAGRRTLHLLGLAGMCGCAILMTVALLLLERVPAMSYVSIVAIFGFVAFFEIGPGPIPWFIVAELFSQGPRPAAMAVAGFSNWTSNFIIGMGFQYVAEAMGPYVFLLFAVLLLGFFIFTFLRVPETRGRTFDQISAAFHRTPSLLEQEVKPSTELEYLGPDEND
Summary of the method: (§1)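 HEK-293T cells expressing individual GLUT4 alanine mutants were stained 48 h post-transfection with anti-GLUT4 scFv MAbs (2 μg/ml), then biotinylated secondary and streptavidin-PerCP, and read by high-throughput flow cytometry. Where used, cytochalasin B (10 uM final) was given for 30 min before and during primary antibody staining.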

hsGLUT4 Q298A = molecular target: T2, hsGLUT4 Q298A (human, UniProt P14672 1-509)
T2 sequence: T1 sequence with A260L, Q298A
Summary of the method: as §1

hsGLUT4 L61A = molecular target: T3, hsGLUT4 L61A (human, UniProt P14672 1-509)
T3 sequence: T1 sequence with L61A, A260L
Summary of the method: as §1

hsGLUT4 E345A = molecular target: T4, hsGLUT4 E345A (human, UniProt P14672 1-509)
T4 sequence: T1 sequence with A260L, E345A
Summary of the method: as §1

B1: AB102 (Fc fusion)
scFv: ALTQPSSVSANLGGTVKITCSGGGSYGYGWYQQKSPGSAPVTVIYSNDQRPSDIPSRFSGSKSGSTATLTITGVRAEDEAIYYCGSTDSDYVGIFGAGTTLTVLGQSSRSSGGGGSSGGGGSAVTLDESGGGLQTPGGTLSLVCKASGFDFSSYATIWVRQAPGKGLEWVAGISGTGTGSSTGYAPAVKGRATISRDNGQSTVRLQLNNLRAEDTGSYFCAKSTGYGDSWIYPDSIDAWGHGTEVIVSS
notes: also called MAb AB102; not shown: Fc fragment of human IgG1, cloned in frame with the scFv
hsGLUT4 L260A
  % of binding to wild type GLUT4: 42%
hsGLUT4 Q298A
  % of binding to wild type GLUT4: 107%
hsGLUT4 L61A
  % of binding to wild type GLUT4: 69%
hsGLUT4 E345A
  % of binding to wild type GLUT4: 80%
